Source: the RNAGym collection of RNA variant scans (doi:10.7554/elife.90254)

B1: LINE1-full (parent)
chain: UACGUAGGUGGUUUUCCCCUGAUAGUGCUAAGGGGGCCUGGAAGUUUGGACUGGGCAGAGCUCAACACAGCGUGGCAAAGUGGCUGUGGCUAGACUGCCUCUCUGGAUUCCUCGUCACUCAGCAGGGCAUCUCUGAGAGAAAUGCC

Variants of: B1
Assay: self-cleavage, relative activity (ratio to wild type); higher = more cleavage; in vitro, sequencing; the parent is a self-cleaving ribozyme

Variant | self-cleavage
G58A U87C | 0
G44U U96G | 0.06
U109C A129U | 1.97
A22C A92U | 1.7
C56U A78G | 0.06
U29A A30G | 0.86
A117U A141G | 1.1
U47A A50G | 1.2
U62A U85G | 0
U109A U115A | 1.47
C68U | 0.13
A140U C145U | 1.63
A50C U91C | 0.48
A50U G54U | 0.66
G33U U130A | 0.9
A22G U100A | 0.98
U52C U143G | 1.6
U20A U119A | 1.47
U52A U91G | 0.08
A69U A129U | 0.06
A42G A65U | 0.32
A107G A129U | 1.84
C103U U109C | 0.53
A43U U46C | 1.23

Variant | self-cleavage
C28A A57G | 1.53
U12C U119A | 1.78
G10A A57U | 0.07
A43U A78C | 2.35
U23C A94U | 0.48
A65G C128U | 0.05
C71U U132C | 1.05
C101A U115A | 1.36
U15C G80A | 1.82
U9A A65G | 0.21
U73A U115A | 1.66
G36A U81G | 1.08
U12G U102C | 0.59
U9C A31U | 1.2
U15A C19U | 0.93
U73A A94G | 0.35
U130A A138G | 1.31
A22U U100C | 1.54
G4C U115C | 2.15
C118A U132C | 1
U47C U112C | 2
U20A G34A | 0.88
A42G C51A | 2.3
U132A G137A | 1.7

Variant | self-cleavage
A59G U112C | 0.13
G58A U130C | 0.05
A6G U12G | 0.85
A57G A129C | 1.33
U87C C146A | 0.2
U52C U100A | 0.63
C51A C111U | 1.07
U9A A22G | 1.53
A124C U132C | 1.11
U132C A136G | 1.47
U14C G105C | 1.84
A78G A117G | 0.89
G74A A142G | 1.1
C145G | 0.55
C145U | 1.32
U45G A107U | 1.05
U62C C111A | 0.02
U15A C128U | 0.76
G53A U112C | 1.25
U9A C131U | 0.79
U9G U96C | 0
U91C G135A | 0.73
U73A A92G | 0.13
U26C U87C | 0.26

Variant | self-cleavage
G40A G139A | 0.58
U52A A141U | 1.35
U73C U112C | 1.65
A78G U130G | 1.88
C118U U143C | 0.87
U108C G125A | 1.22
U15C G53A | 1.34
C19A A78G | 1.53
U73C U108C | 0.95
A67U G72A | 0.13
C101U G114A | 1.37
A22G U134A | 1.03
A50G A142C | 1.07
C66U A142C | 0.04
A69U A138G | 0.07
U26C A77C | 1.61
U26C A77G | 1.93
U12A A59G | 0.27
C37G U62C | 0.12
A67G C99A | 0.17
G34U A77G | 2.2
U13A U134A | 0.51
A92U U109A | 0.34
U5C A77U | 0.73

Variant | self-cleavage
U47A C111A | 1.18
G34C A77G | 1.64
U45C A77G | 2.62
U29A U85A | 0.12
G55U A142G | 0.11
A117G A129C | 1.93
G35U A43G | 1.93
A57G U73G | 0.69
G48U A121G | 0.99
U20C U134A | 0.96
A24G G114C | 1.7
G97U A129U | 0.08
U26A U46C | 1.45
U85A U96A | 0.12
U9C C18U | 1
G7A U104A | 1.11
G7A U104C | 1.15
G75C U108C | 0.77
U26A U109C | 0.95
G4U A77G | 2.68
U13A A141G | 1.26
U15C U73C | 1.8
U13A U130A | 1.15
A78G U108G | 1.38

Variant | self-cleavage
U100C U108A | 1.42
U20C U102C | 1.25
G35A U115C | 1.03
A22U G40U | 0.87
U9A C37G | 0.82
G54A U115C | 1.27
C28A A67G | 0.55
A92C U104A | 0.38
A22G A59C | 1.31
U9C C98U | 0.59
U62A C84U | 0.04
U20G A136U | 0.98
C16U A77U | 1.4
A69C G83A | 0.02
A77C U108C | 1.6
G34U | 1.43
G72U A121U | 1.08
U1A G25C | 1.2
A69G U81C | 0.54
U100G G137A | 0.77
G40A A43G | 1
A6U A22G | 0.87
U100C G144C | 1.95
A107G A141G | 1.64

Variant | self-cleavage
A30U A67U | 0.1
G27A A79U | 1.36
U52A U109C | 1.21
C28A A129G | 1.5
A77G G125U | 2.41
U100C A121U | 2.11
U109C U134C | 1.21
A31C U87A | 0.07
U1C U87C | 0.1
A2G C71G | 0.42
G40A U115A | 1.17
A94U C133U | 0.29
U20C G93A | 0.04
G122A | 1.13
G53C U115C | 1.96
U45G A50G | 0.89
U47C C61U | 0.05
A107U U112C | 1.84
U130C G139A | 1.5
G48A U112A | 0.83
U5G A121G | 0.84
A69G C113U | 0.41
G55A U108C | 0.52
